Results published in US10752675B2, “Compounds for treating the remyelination blockade in diseases associated with the expression of HERV-W envelope protein” (GENEURO S.A., priority 2012, dated 2020).

Legend:
[1] = tested on: MSRV-Env induced EAE in C57BL/6 mice; assay: EAE clinical score, Example 3.A (EAE induced with MOG and MSRV-Env); assay type: in vivo; conditions: treatment from day 12 to day 29: GNbAc1 200 μg once, L-NAME 600 μg IP and SMT 1 mg IP every 4 days, DMF 1 mg daily in drinking water
From the text: Pathogen free female C57BL/6 nice (6-8 weeks old) were purchased from the Charles River laboratories and maintained at the animal facilities for one week before immunization. One day before immunization, all mice have been weighed, and then evaluated on the Rotarod Test. Rotarod:
Animals were weighed and clinically scored 5 days per week according to the following criteria: 0=no signs; 1=tail paralysis or hyper-reflex of hind limb(s) or unilateral hind limb weakness; 2=bilateral hind limb or forelimb weakness; 3=plus unilateral paralysis or major deficit; 4=complete hind limb or forelimb paralysis; 5=plus partial paralysis or major deficit of opposite limbs; 6=moribund or dead. These were adapted from standard criteria, in order to reflect the more rapid induction of brain and cervical cord lesions with this model.
All groups of 6 (six) mice have been first injected s.c. in the neck on day 0 then in the dorsal flanks on day 7 and 14; with 200 μg of MOG/mouse+60 μg of MSRV-Env+IFA.
For Groups G to H, the treatments with GNbAc1, L-NAME, SMT and DMF alone or together with GNbAc1 with the doses indicated below, have been initiated on day 12 post immunization when the progression of EAE clinical symptoms was already observed. GNbAc1 humanized antibody was administered once, but L-Name or SMT was administered every 4 days until termination of the study on day 29. Regarding Groups E and H, attributed for the treatment with DMF, we have previously determined the volume of daily water consumption by each mouse and it has been determined that (in our condition), each mouse consumed around 3.5 ml drinking water per day. Thus, on the basis of this measurement, a dose of 1 mg DMF+0.08% Methocel per mouse were added to 3.5 ml drinking water daily.
350 ng of pertussis toxin (PTX) per animal was injected (i.p.) in all groups on the same day following each immunogen injection, and replicated 2 days later, as usual in EAE protocols in order to facilitate the migration lymphocytes through the blood-brain barrier.

[2] = tested on: MSRV-Env induced EAE in C57BL/6 mice; assay: Rotarod test, Example 3.B (MSRV-Env induced EAE); assay type: in vivo; conditions: GNbAC1 500 μg/mouse given alone, all relevant speeds (16, 26, 29 rpm)
Description: 1 day before each immunization, mice were transferred in their home cages, from the holding room to the experimental room. Mice were habituated to the experimental room for 15 min. Mice then received two trials at 10 increasing speed levels, ranging from 7 to 40 rpm. Individual delays before falling off the rotarod (for the two trials at each speed level) was recorded until 60 sec. Thus, training and performance on the Rotarod system were determined for each animal.
The ROTAROD test results are expressed as kinetics of the mean of individual scores for each group with SEM indicated by bars, for each test day and for each test speed within the discriminating range for neuromotor impairment in present conditions (16 to 29 rpm).
They are calculated for each individual mouse, for each test day and for each speed value, as the relative gain or loss of time on Rotarod (before falling), compared to the first test day at the same speed (D-7, before starting the disease induction in relevant groups). The value is calculated as “Time on Rotarod at dayX”−“Time at Day-7 for the same mouse at the same speed”. […]

B1: GNbAC1: recombinant humanized anti-Env IgG4 monoclonal antibody comprising the CDRs of SEQ ID No. 1 to 6 (antibody, chains of the INN, looked up, V domains shown)
VH: QVQLVQSGAEVKKPGSSVKVSCKASGYTFTDYEMHWVRQAPGQGLEWIGAVAPETGGTAYNQKFKGRATITADKSTSTAYMELSSLRSEDTAVYYCTSTVVPFAYWGQGTLVTVSS
VL: QIQLTQSPSSLSASVGDRVTITCSASSSVSYMYWYQQKPGKAPKAWIYRTSNLASGVPSRFSGSGSGTDYTLTISSLQPEDFATYYCQQYQSLPLTFGGGTKVEIK
EAE clinical score kinetics and recovery [1]: improve after its injection | EAE clinical score kinetics and recovery ([1]; listed as GNbAc1): diminished slightly | Rotarod, improvement of neurological deficit [2]: significantly the most efficient product
